Measured values from publication PMC4873981.

Molecular target: Myc-MRTF, full-length Y866G mutant (UniProt P59759)
Assay: co-IP; LLC-PK1 cells co-transfected with Myc-MRTF constructs and HA-TAZ constructs, IP with anti-Myc, blot for HA; untreated or LCM 30 min

UniProt P59759, sequence (P59759 whole entry Y866G): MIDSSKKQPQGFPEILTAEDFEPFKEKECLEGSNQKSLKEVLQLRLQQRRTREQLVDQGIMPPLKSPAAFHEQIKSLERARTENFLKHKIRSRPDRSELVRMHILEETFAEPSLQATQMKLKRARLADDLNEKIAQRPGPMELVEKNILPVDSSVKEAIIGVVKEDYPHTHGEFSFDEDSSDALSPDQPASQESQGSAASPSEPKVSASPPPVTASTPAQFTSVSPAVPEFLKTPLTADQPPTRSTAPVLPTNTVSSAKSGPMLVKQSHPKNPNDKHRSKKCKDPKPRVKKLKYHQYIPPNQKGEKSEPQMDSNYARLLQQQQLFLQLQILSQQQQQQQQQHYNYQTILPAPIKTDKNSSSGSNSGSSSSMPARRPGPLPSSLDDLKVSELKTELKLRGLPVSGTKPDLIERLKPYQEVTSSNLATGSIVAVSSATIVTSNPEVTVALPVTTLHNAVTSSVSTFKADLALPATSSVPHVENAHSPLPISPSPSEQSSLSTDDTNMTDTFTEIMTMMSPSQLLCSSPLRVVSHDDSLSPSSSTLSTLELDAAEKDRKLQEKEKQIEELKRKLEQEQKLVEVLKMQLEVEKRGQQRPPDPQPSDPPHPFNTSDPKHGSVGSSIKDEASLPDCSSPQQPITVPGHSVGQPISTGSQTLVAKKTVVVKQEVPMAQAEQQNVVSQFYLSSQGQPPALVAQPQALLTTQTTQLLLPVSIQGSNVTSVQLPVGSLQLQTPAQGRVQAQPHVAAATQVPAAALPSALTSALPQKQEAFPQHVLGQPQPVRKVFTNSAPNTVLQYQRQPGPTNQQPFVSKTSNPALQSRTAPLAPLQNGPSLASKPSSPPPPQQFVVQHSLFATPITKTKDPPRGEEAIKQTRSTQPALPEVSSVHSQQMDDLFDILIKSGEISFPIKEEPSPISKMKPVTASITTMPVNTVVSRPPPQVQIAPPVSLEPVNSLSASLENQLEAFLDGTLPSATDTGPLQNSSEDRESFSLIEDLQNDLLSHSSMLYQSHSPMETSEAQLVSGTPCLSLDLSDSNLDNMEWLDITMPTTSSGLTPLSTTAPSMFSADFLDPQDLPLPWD

## HA-TAZ, wild type (from UniProt Q9GZV5 1-400) (natural protein)
  reduction in association against WT MRTF: > 50%
